This series deals with T1, Long S6 substrate peptide (32 amino-acid).
T1 chain: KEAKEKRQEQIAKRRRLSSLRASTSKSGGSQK

B1: Human recombinant Rho kinase (ROKα/ROCK-II, amino acids 11-552), human active, catalog #14-451, Upstate USA, Inc. (protein)
chain: PGAPETAPGDGAGASRQRKLEALIRDPRSPINVESLLDGLNSLVLDLDFPALRKNKNIDNFLNRYEKIVKKIRGLQMKAEDYDVVKVIGRGAFGEVQLVRHKASQKVYAMKLLSKFEMIKRSDSAFFWEERDIMAFANSPWVVQLFYAFQDDRYLYMVMEYMPGGDLVNLMSNYDVPEKWAKFYTAEVVLALDAIHSMGLIHRDVKPDNMLLDKHGHLKLADFGTCMKMDETGMVHCDTAVGTPDYISPEVLKSQGGDGFYGRECDWWSVGVFLYEMLVGDTPFYADSLVGTYSKIMDHKNSLCFPEDAEISKHAKNLICAFLTDREVRLGRNGVEEIRQHPFFKNDQWHWDNIRETAAPVVPELSSDIDSSNFDDIEDDKGDVETFPIPKAFVGNQLPFIGFTYYRENLLLSDSPSCRENDSIQSRKNEESQEIQKKLYTLEEHLSNEMQAKEELEQKCKSVNTRLEKTAKELEEEITLRKSVESALRQLEREKALLQHKNAEYQRKADHEADKKRNLENDVNSLKDQLEDLKKRNQNSQI
For the protein B1, the “Maximum DPMs found in phosphorylated substrate (i.e. product)” value is reported as 52,557±2,058 (n=14) (0.22% of total added DPMs) and the “Net fold phosphorylation of substrate (33P incorporation, filter mat kinase assay)” value is given as 4.4-fold above basal blanks (n=14 experiments; 42 separate assay determinations).

For the origin of these results see US20060115870.
